# Measured values published in patent US20220160843A1 (priority 2019, published 2022).
# Tests used:
# P. aeruginosa [1] = assay: Minimal inhibitory concentration (MIC), modified CLSI broth microdilution in CAA or CAA/HuS; type: cell-based, Pseudomonas aeruginosa; details: for MIC (μg/mL) in CAA: CAA media; for MIC (μg/mL in CAA/HuS): CAA supplemented with 25% human serum
# [2] = tested on: P. aeruginosa strain ATCC 17647; assay: Minimal Biofilm Eradicating Concentration (MBEC), Calgary Biofilm Device; type: cell-based, Pseudomonas aeruginosa; details: 24 h biofilm, 24 h treatment; minimum concentration removing >95% of biofilm biomass (crystal violet)
# From the text: All samples were examined in triplicate.
# human erythrocytes = type: cell-based
# Procedure: The hemolytic activity of the GN lysins was measured as the amount of hemoglobin released by the lysis of human erythrocytes (30). Briefly, 3 ml of fresh human blood cells (hRBCs) obtained from pooled healthy donors (BioreclamationIVT) in a polycarbonate tube containing heparin was centrifuged at 1,000×g for 5 min at 4° C. The erythrocytes obtained were washed three times with phosphate-buffered saline (PBS) solution (pH 7.2) and resuspended in […]. […] Intact erythrocytes were pelleted by centrifugation at 1,000×g for 5 min at 4° C., and the supernatant was transferred to a new 96-well plate. The release of hemoglobin was monitored by measuring the absorbance at 570 nm.
# P. aeruginosa [3] = assay: Time-kill assay of GN lysin activity; type: cell-based, Pseudomonas aeruginosa; details: for Log10 CFU/mL T = 3 hr / Log10 CFU/mL T = l hr: lysin 10 μg/mL, T = 0 7.8; for Log10 CFU/mL T = 3 hr: buffer control 7.2, limit of detection 3.7; for Log10 CFU/mL T = l hr: buffer control 7.7; for bactericidal activity in the time-kill assay format: 3-hour timepoint, 10 μg/mL, in either CAA/HuS or HEPES buffer
# Procedure: All treatments were incubated at 37° C. with aeration.
# [4] = tested on: carbapenem-resistant clinical strain, WC-452; assay: Checkerboard assay to examine synergy with antibiotics in CAA/HuS; type: cell-based, P. aeruginosa; details: for FICI, Fosfomycin: lysin + fosfomycin; for FICI, Gentamicin: lysin + gentamicin; for FICI, Imipenem: lysin + imipenem; for FICI, Meropenem: lysin + meropenem; for FICI, Piperacillin: lysin + piperacillin
# [5] = tested on: carbapenem-resistant P. aeruginosa strains; assay: Resensitization of carbapenem-resistant clinical strains using carbapenems in combination with lysins; type: cell-based
# Procedure: The checkerboard assays is based on a modification of the CLSI method for MIC determination by broth microdilution (26, 29). Checkerboards were constructed by first preparing columns of a 96-well polypropylene microtiter plate, in which each well had the same amount of antibiotic diluted 2-fold along the horizontal axis. […] Summation fractional inhibitory concentrations (ΣFICs) were calculated for each drug and the minimum ΣFIC value (ΣFICmin) was used to determine synergy. ΣFICs were calculated as follows: ΣFIC=FIC A+FIC B, where FIC A is the MIC of each antibiotic in the combination/MIC of each antibiotic alone, and FIC B is the MIC of each GN lysin in the combination/MIC of each GN lysin alone. The combination is considered synergistic when the ΣFIC is ≤0.5, strongly additive when the ΣFIC is >0.5 to <1, additive with the ΣFIC is 1−<2, and antagonistic when the ΣFIC is ≥2.
# Up to seven carbapenem-resistant isolates were assessed. […] See Clinical and Laboratory Standards Institute (CLSI), CLSI. […] M100 Performance Standards for Antimicrobial Susceptibility Testing; 29th Edition. Clinical and Laboratory Standards Institute, Wayne, Pa.
# [6] = CAA/HuS, ‡ indicates bactericidal activity
# [7] = HEPES buffer, ‡ indicates bactericidal activity
molecule,measurement,setting,value
"GN10: Native lysin, GenBank YP_002600773.1, SEQ ID NO: 22 (protein, Pseudomonas phage phi2954) MSKQGGVKVAQAVAALSSPGLKIDGIVGKATRAAVSSMPSSQKAATDKILQSAGIGSLDSLLAEPAAATSDTFREVVLAVAREARKRGLNPAFYVAHIALETGWGRSVPKLPDGRSSYNYAGLKYAAVKTQVKGKTETNTLEYIKSLPKTVRDSFAVFASAGDFSRVYFWYLLDSPSAYRYPGLKNAKTAQEFGDILQKGGYATDPAYAAKVASIASTAVARYGSDVSSVA",MIC (μg/mL) in CAA,P. aeruginosa [1],8 µg/mL
same,MIC (μg/mL in CAA/HuS),P. aeruginosa [1],16 µg/mL
same,MBEC,[2],0.5 µg/mL
same,hemolytic activity,human erythrocytes,no hemolytic activity whatsoever
same,Log10 CFU/mL T = 3 hr,P. aeruginosa [3]; [6],7.4 Log10 CFU/mL
same,Log10 CFU/mL T = l hr,P. aeruginosa [3]; CAA/HuS,7.4 Log10 CFU/mL
same,Log10 CFU/mL T = 3 hr,P. aeruginosa [3]; [7],<3.7‡ Log10 CFU/mL
same,Log10 CFU/mL T = l hr,P. aeruginosa [3]; [7],5.7 Log10 CFU/mL
"GN108: Native lysin, GenBank YP_009288673.1, SEQ ID NO: 26 (protein, Acinetobacter phage phiAB6) MILTKDGFSIIRNELFEGKLDQTQVDAINFIVEKATEYGLTYPEAAYLLATIYHETGLPSGYRTMQPIKEAGSDSYLRSKKYYPYIGYGYVQLTWEENYERIGKLIGIDLVKNPEKALEPLIAIQIAIKGMLNGWFTGVGFRRKRPVSKYNKQQYVAARNIINGKDKAELIAKYAIIFERALRSL",MIC (μg/mL) in CAA,P. aeruginosa [1],8 µg/mL
same,MIC (μg/mL in CAA/HuS),P. aeruginosa [1],8 µg/mL
same,MBEC,[2],0.125 µg/mL
same,hemolytic activity,human erythrocytes,no hemolytic activity whatsoever
same,bactericidal activity in the time-kill assay format,P. aeruginosa [3],bactericidal activity
same,Log10 CFU/mL T = 3 hr,P. aeruginosa [3]; [6],<3.7‡ Log10 CFU/mL
same,Log10 CFU/mL T = l hr,P. aeruginosa [3]; CAA/HuS,5.7 Log10 CFU/mL
same,Log10 CFU/mL T = 3 hr,P. aeruginosa [3]; [7],<3.7‡ Log10 CFU/mL
same,Log10 CFU/mL T = l hr,P. aeruginosa [3]; [7],6.4 Log10 CFU/mL
same,synergy with antibiotics in the checkerboard assay,[4],synergize with a range of antibiotics
same,"FICI, Amikacin",[4]; lysin + amikacin,0.156
same,"FICI, Azithromycin",[4]; lysin + azithromycin,0.060
same,"FICI, Aztreonam",[4]; lysin + aztreonam,0.250
same,"FICI, Ciprofloxacin",[4]; lysin + ciprofloxacin,0.281
same,"FICI, Colistin",[4]; lysin + colistin,0.133
same,"FICI, Fosfomycin",[4],0.188
same,"FICI, Gentamicin",[4],0.188
same,"FICI, Imipenem",[4],0.039
same,"FICI, Meropenem",[4],0.250
same,"FICI, Piperacillin",[4],0.531
same,"FICI, Rifampicin",[4]; lysin + rifampicin,0.125
same,"FICI, Tobramycin",[4]; lysin + tobramycin,0.188
"GN105: Native lysin, GenBank WP_016046696.1, SEQ ID NO: 25 (protein, listed as Pseudomonas aeruginosa) MAVVSEKTAGGRNVLAFLDMLAWSEGTSTIRGSDNGYNVVVGGGLFNGYADHPRLKVYLPRYKVYSTAAGRYQLLSRYWDAYRESLALKGGFTPSNQDLVALQQIKERRSLADIQAGRLADAVQKCSNIWASLPGAGYGQREHSLDDLTAHYLAAGGVLS",MIC (μg/mL) in CAA,P. aeruginosa [1],>128 µg/mL
same,MIC (μg/mL in CAA/HuS),P. aeruginosa [1],32 µg/mL
same,MBEC,[2],4 µg/mL
same,hemolytic activity,human erythrocytes,no hemolytic activity whatsoever
same,Log10 CFU/mL T = 3 hr,P. aeruginosa [3]; [6],6.3 Log10 CFU/mL
same,Log10 CFU/mL T = l hr,P. aeruginosa [3]; CAA/HuS,7.0 Log10 CFU/mL
same,Log10 CFU/mL T = 3 hr,P. aeruginosa [3]; [7],<3.7 Log10 CFU/mL
same,Log10 CFU/mL T = l hr,P. aeruginosa [3]; [7],6.6 Log10 CFU/mL
"GN123: Native lysin, GenBank YP_009217242.1, SEQ ID NO: 27 (protein, Pseudomonas phage PhiPA3) MTLLKKGDKGDAVKQLQQKLKDLGYTLGVDGNFGNGTDTVVRSFQTKMKLSVDGVVGNGTMSTIDSTLAGIKAWKTSVPFPATNKSRAMAMPTLTEIGRLTNVDPKLLATFCSIESAFDYTAKPYKPDGTVYSSAEGWFQFLDATWDDEVRKHGKQYSFPVDPGRSLRKDPRANGLMGAEFLKGNAAILRPVLGHEPSDTDLYLAHFMGAGGAKQFLMADQNKLAAELFPGPAKANPNIFYKSGNIARTLAEVYAVLDAKVAKHRA",MIC (μg/mL) in CAA,P. aeruginosa [1],2 µg/mL
same,MIC (μg/mL in CAA/HuS),P. aeruginosa [1],128 µg/mL
same,MBEC,[2],4 µg/mL
same,hemolytic activity,human erythrocytes,no hemolytic activity whatsoever
same,bactericidal activity in the time-kill assay format,P. aeruginosa [3],bactericidal activity
same,Log10 CFU/mL T = 3 hr,P. aeruginosa [3]; [6],<3.7‡ Log10 CFU/mL
same,Log10 CFU/mL T = l hr,P. aeruginosa [3]; CAA/HuS,6.7 Log10 CFU/mL
same,Log10 CFU/mL T = 3 hr,P. aeruginosa [3]; [7],<3.7‡ Log10 CFU/mL
same,Log10 CFU/mL T = l hr,P. aeruginosa [3]; [7],5.6 Log10 CFU/mL
same,"FICI, Fosfomycin",[4],0.250
same,"FICI, Gentamicin",[4],0.375
same,"FICI, Imipenem",[4],0.188
same,"FICI, Meropenem",[4],0.125
same,"FICI, Piperacillin",[4],0.500
same,GN123 Alone,"[5]; isolate PA19, MIC of GN123 alone (imipenem checkerboard)",8 µg/mL
same,GN123 Alone,"[5]; isolate PA19, MIC of GN123 alone (meropenem checkerboard)",8 µg/mL
same,GN123 Combination,"[5]; isolate PA19, MIC of GN123 in combination with imipenem",0.125 µg/mL
same,GN123 Combination,"[5]; isolate PA19, MIC of GN123 in combination with meropenem",0.25 µg/mL
same,FICI,"[5]; isolate PA19, imipenem + GN123",0.03
same,FICI,"[5]; isolate PA19, meropenem + GN123",0.046
same,GN123 Alone,"[5]; isolate PA20, MIC of GN123 alone (imipenem checkerboard)",16 µg/mL
same,GN123 Alone,"[5]; isolate PA20, MIC of GN123 alone (meropenem checkerboard)",16 µg/mL
same,GN123 Combination,"[5]; isolate PA20, MIC of GN123 in combination with imipenem",2 µg/mL
same,GN123 Combination,"[5]; isolate PA20, MIC of GN123 in combination with meropenem",1 µg/mL
same,FICI,"[5]; isolate PA20, imipenem + GN123",0.188
same,FICI,"[5]; isolate PA20, meropenem + GN123",0.094
same,GN123 Alone,"[5]; isolate PA21, MIC of GN123 alone (imipenem checkerboard)",8 µg/mL
same,GN123 Alone,"[5]; isolate PA21, MIC of GN123 alone (meropenem checkerboard)",8 µg/mL
same,GN123 Combination,"[5]; isolate PA21, MIC of GN123 in combination with imipenem",1 µg/mL
same,GN123 Combination,"[5]; isolate PA21, MIC of GN123 in combination with meropenem",1 µg/mL
same,FICI,"[5]; isolate PA21, imipenem + GN123",0.141
same,FICI,"[5]; isolate PA21, meropenem + GN123",0.156
same,GN123 Alone,"[5]; isolate PA22, MIC of GN123 alone (imipenem checkerboard)",16 µg/mL
same,GN123 Alone,"[5]; isolate PA22, MIC of GN123 alone (meropenem checkerboard)",16 µg/mL
same,GN123 Combination,"[5]; isolate PA22, MIC of GN123 in combination with imipenem",1 µg/mL
same,GN123 Combination,"[5]; isolate PA22, MIC of GN123 in combination with meropenem",1 µg/mL
same,FICI,"[5]; isolate PA22, imipenem + GN123",0.188
same,FICI,"[5]; isolate PA22, meropenem + GN123",0.125
same,GN123 Alone,"[5]; isolate PA23, MIC of GN123 alone (imipenem checkerboard)",8 µg/mL
same,GN123 Alone,"[5]; isolate PA23, MIC of GN123 alone (meropenem checkerboard)",8 µg/mL
same,GN123 Combination,"[5]; isolate PA23, MIC of GN123 in combination with imipenem",2 µg/mL
same,GN123 Combination,"[5]; isolate PA23, MIC of GN123 in combination with meropenem",1 µg/mL
same,FICI,"[5]; isolate PA23, imipenem + GN123",0.281
same,FICI,"[5]; isolate PA23, meropenem + GN123",0.156
same,GN123 Alone,"[5]; isolate PA24, MIC of GN123 alone (imipenem checkerboard)",16 µg/mL
same,GN123 Alone,"[5]; isolate PA24, MIC of GN123 alone (meropenem checkerboard)",16 µg/mL
same,GN123 Combination,"[5]; isolate PA24, MIC of GN123 in combination with imipenem",2 µg/mL
same,GN123 Combination,"[5]; isolate PA24, MIC of GN123 in combination with meropenem",0.5 µg/mL
same,FICI,"[5]; isolate PA24, imipenem + GN123",0.188
same,FICI,"[5]; isolate PA24, meropenem + GN123",0.094
same,GN123 Alone,"[5]; isolate WC-452, MIC of GN123 alone (imipenem checkerboard)",16 µg/mL
same,GN123 Alone,"[5]; isolate WC-452, MIC of GN123 alone (meropenem checkerboard)",16 µg/mL
same,GN123 Combination,"[5]; isolate WC-452, MIC of GN123 in combination with imipenem",2 µg/mL
same,GN123 Combination,"[5]; isolate WC-452, MIC of GN123 in combination with meropenem",1 µg/mL
same,FICI,"[5]; isolate WC-452, imipenem + GN123",0.188
same,FICI,"[5]; isolate WC-452, meropenem + GN123",0.125
same,resensitization of carbapenem-resistant isolates to IPM and MEM,"[5]; synergistic combinations with imipenem or meropenem, breakpoints ≤2 sensitive, 4 intermediate, ≥8 resistant",reductions of IPM and MEM MICS to below breakpoint values
